Assay results: patent US10370433B2, “Compositions and methods for diagnosis and treatment of cancer” (BIONTECH AG, priority 2015, dated 2019)

Tests used:
[1] = biological target: T1, recombinant human Seprase (rhuSeprase) (Homo sapiens, UniProt Q12884); assay: Surface plasmon resonance (Biacore T100) on immobilized rhuSeprase; assay type: binding
T1 construct: named pCEP4-IgKappa-huSeprase-coCHO_26-760aa-H6 and used for the generation of recombinant soluble human Seprase (rhuSeprase); mouse Ig kappa-chain V-J2-C secretion signal (N, cleaved yes); made in house; host or cells: FreeStyle CHO-S cells (transient transfection; purified from supernatant by Ni-chelate and SEC)
T1 sequence (Q12884 26-760): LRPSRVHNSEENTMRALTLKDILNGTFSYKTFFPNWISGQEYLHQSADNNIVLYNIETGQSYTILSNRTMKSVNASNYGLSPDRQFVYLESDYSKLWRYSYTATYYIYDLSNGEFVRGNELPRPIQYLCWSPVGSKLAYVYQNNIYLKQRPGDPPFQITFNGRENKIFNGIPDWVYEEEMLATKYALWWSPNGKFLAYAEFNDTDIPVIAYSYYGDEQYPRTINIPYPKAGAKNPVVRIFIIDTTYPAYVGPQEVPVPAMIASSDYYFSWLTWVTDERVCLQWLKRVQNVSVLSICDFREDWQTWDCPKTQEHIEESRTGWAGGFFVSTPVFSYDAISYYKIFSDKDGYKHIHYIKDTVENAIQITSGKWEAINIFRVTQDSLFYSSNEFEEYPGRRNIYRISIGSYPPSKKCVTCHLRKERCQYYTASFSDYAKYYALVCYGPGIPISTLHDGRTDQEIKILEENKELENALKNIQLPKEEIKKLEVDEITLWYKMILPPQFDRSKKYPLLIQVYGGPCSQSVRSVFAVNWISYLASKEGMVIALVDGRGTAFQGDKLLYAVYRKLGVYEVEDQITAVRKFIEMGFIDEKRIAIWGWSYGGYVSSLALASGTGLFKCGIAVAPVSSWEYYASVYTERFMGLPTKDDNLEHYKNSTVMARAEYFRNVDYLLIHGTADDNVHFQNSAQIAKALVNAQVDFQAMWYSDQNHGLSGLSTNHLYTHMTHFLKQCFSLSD

CHO-K1-huSeprase tumors = assay: Biodistribution and tumor targeting of AlexaFluor-680 conjugates, near-infrared optical imaging; assay type: in vivo, Fox n1 nu mice
Protocol: For in vivo imaging assays female Fox n1 nu mice (6-8 weeks of age, Harlan, Envigo) were used. The experiments were performed according to national regulations and approved by the local animal experiments ethical committee. Subconfluent CHO-K1-huSeprase cells were harvested and resuspended in PBS to a density of 1×10^7 cells/ml. Prior to inoculation, cell viability was tested by 0.4% trypan blue exclusion assay (viable cells>90%). For subcutaneous injection 1×10^6 CHO-K1-huSeprase cells in 100 μl PBS were mixed with 100 μl Matrigel (Corning) and injected into the right side of the limb. When tumor volumes reached 600-800 mm^3, animals were randomly separated into several groups for different treatments (n=3 per each group). […] At different time points after the injection, mice were anaesthetized by inhalation of isoflurane. In vivo imaging was conducted using a Xenogen IVIS Spectrum imaging System (Perkin Elmer, USA). Maximal near infrared signals (NIRF) were quantified using Living Image 2.5 (Xenogen, Perkin Elmer) image analysis software. For ex vivo NIRF imaging, the mice were sacrificed, and the tumor and major organs of each mouse were excised, weighed and analyzed by Xenogen IVIS System.
To analyze the pharmacokinetic and tumor targeting properties of the AF680-(MC-FA-012)3 trimer biodistribution in female Fox n1 nu mice was monitored at six time points after injection (1, 2, 4, 6, 24 and 96 h). […] After each time point biodistibution was measured in vivo and ex vivo using a Xenogen Imaging system (FIG. 14 A+B). […] Overall, the background signals for the binder and for the non-binding control were in the same range.

B1: AF680-(MC-FA-012)3: AlexaFluor 680 conjugated MC-FA-012 trimer (conjugate)
chain 1: GACPYSNWTPGRGPDCRRDSDCPGRCICRGNGYCG
chain 2: B1 chain 1
chain 3: B1 chain 1
modifications: left off: things letters cannot carry; small tags and cut ends
notes: AlexaFluor 680 conjugated MC-FA-012 trimer
offrate, times slower compared to MC-FA-012 [1]: around 134 times | ka ([1]; 1:1 binding model): 1.68e+07 M⁻¹ s⁻¹ | kidney signals (CHO-K1-huSeprase tumors; mouse, in vivo): strong kidney signals | signals in lung, heart, spleen and liver (CHO-K1-huSeprase tumors; mouse, in vivo): generally low | tumor uptake (CHO-K1-huSeprase tumors; up to 24 h after injection): specific and significant tumor uptake
